From article PMC1931592

Tests used:
[1] = target: Recombinant human caspase-9 (active) (human) (UniProt P55211); test: enzyme inhibition assay (fluorogenic substrate cleavage); one unit of active recombinant human caspase incubated with various concentrations of peptide inhibitor in 100 mM NaCl, 50 mM HEPES, 10 mM DTT, 1 mM EDTA, 10% glycerol, 0.1% CHAPS, pH 7.4, 37°C, 30 min; then 200 μM substrate (Ac-DEVD-MCA for caspases-3 and -7, Ac-IETD-MCA for caspase-8, Ac-LEHD-MCA for caspase-9); apparent Ki = IC50/(1+[S]/Km)
Sequence of Recombinant human caspase-9 (active) (human) (P55211 whole entry): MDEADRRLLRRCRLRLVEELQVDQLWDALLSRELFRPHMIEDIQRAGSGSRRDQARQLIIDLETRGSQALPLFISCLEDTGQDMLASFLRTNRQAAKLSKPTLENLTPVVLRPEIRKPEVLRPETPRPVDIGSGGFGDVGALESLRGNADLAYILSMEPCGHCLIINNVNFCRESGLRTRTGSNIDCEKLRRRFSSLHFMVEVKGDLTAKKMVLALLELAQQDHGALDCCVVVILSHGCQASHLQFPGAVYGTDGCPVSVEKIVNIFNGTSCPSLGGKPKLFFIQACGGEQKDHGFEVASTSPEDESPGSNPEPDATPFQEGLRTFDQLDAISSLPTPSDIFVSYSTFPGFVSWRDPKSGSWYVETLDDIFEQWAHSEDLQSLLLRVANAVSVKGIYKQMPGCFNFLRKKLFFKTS

[2] = target: T1, substituted (S209A) active caspase-3 generated by coexpression of HA-p17 and HA-p12 (S209A) subunits (human) (UniProt P42574)
T1 sequence 1: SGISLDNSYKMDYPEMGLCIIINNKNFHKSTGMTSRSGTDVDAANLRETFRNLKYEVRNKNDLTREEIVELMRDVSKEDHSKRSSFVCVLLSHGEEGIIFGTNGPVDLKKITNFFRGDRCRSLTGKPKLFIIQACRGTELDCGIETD
T1 sequence 2: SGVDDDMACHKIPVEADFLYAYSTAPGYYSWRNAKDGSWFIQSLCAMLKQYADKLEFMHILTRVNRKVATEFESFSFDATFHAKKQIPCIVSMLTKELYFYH

Ki [1] [nM]	cleavage of Ac-DNLD-MCA by in vitro translated S209A active caspase-3, against the wild type (% loss of cleavage activity) [2]	Substance
1.35		Ac-DEVD-CHO (peptide)
> 200		Ac-DNLD-CHO (peptide)
	> 60	Ac-DNLD-MCA (peptide)
